Results reported in patent CN116284408A (SUNSHINE GUOJIAN PHARMACEUTICAL SHANGHAI CO LTD, dated 2023).

Key:
[1] = target: T1, 人MUC17-Fc蛋白 (human, UniProt Q685J3 4131-4390); experiment: ELISA, MUC17-Fc coated, murine antibody titrated
T1 construct: range 4131-4390; No linker is described; also called MUC17抗原; not shown: C-terminal Fc tag

[2] = target: MUC17 on LS174T colorectal cancer cells (human, UniProt Q685J3 26-4493); experiment: flow cytometry on LS174T cells, murine antibody titrated; set-up: Top: unit not given here
[3] = target: T1, 人MUC17-Fc蛋白; experiment: ELISA, coated MUC17 antigen, antibody titrated
[4] = target: T1, 人MUC17-Fc蛋白; experiment: ELISA, coated MUC17 antigen, chimeric antibody titrated
[5] = target: T2, MUC17 on LS174T colorectal cancer cells (human, UniProt Q685J3 26-4493); experiment: flow cytometry on LS174T cells, murine antibody titrated; set-up: Top: unit not given here; remark: listed apart in the source
[6] = target: T2, MUC17 on LS174T colorectal cancer cells; experiment: flow cytometry on LS174T cells, chimeric antibody titrated
[7] = target: T2, MUC17 on LS174T colorectal cancer cells; experiment: flow cytometry on LS174T cells

Row | EC50 [1] [µg/mL] | Top [1] [OD450] | EC50 [2] [µg/mL] | Top [2] | EC50 [3] [nM] | EC50 [4] [nM] | EC50 [5] [µg/mL] | EC50 [6] [nM] | EC50 [7] [nM] | Binder
1 | 0.0276 | 1.97 | 0.11 | 296 |  |  |  |  |  | 56E8 (antibody, V domains shown) VH: QVQLKESGPGLVAPSQSLSITCTVSGFSLTAYGVHWVRQPPGKGLEWLGGIWAGGSTKSNSALMSSLSISKDNSKSQVFLKMNSLQTDDSAMYYCARALFYGYFDVWGAGTTVTVSS VL: DIVMTQSQKFMSTSVGDRVSVTCKASQSVDTNVAWYQQRPGQSPEALIFSASYRYSGVPDRFTGSGSGTDFTLTISNVQSEDLAEYFCQQYNVYPYTFGGGTNLEIK
2 | 0.0623 | 2.88 | 0.395 | 460 |  |  |  |  |  | 23F6 (antibody, V domains shown) VH: QVQLKESGPGLVAPSQSLSITCTVSGFSLTAYGVHWVRQPPGKGLEWLGGIWAGGNTQSHSALMSRVSISKDISKRQVFLKMDRLQTDDSAIYYCARALFYGNFDVWGAGTTVTVSS VL: DIVMTQSQRFMSTSVGDRVSVTCKASQSVDTSVAWYQQRPGQSPEALIFSASYRYSGVPDRFTGSGSGTDFTLTISNVQSEDLAEYFCQQYNSYPYTFGGGTNLEMR
3 | 0.0813 | 2.64 | 0.542 | 500 |  |  |  |  |  | 50A5 (antibody, V domains shown) VH: QVQLKESGPGLVAPSQSLSITCTVSGFSLTAYGVHWVRQPPGKGLEWLGGIWAGGNTQSHSALMSRLTISKDISKSQVFLRMNSLQTDDSAMYYCARALFYGNFDVWGAGTTVTVSS VL: DIVMTQSQRFMSTSVGDRVSVTCKASQSVDTSVAWYQQRPGQSPEALIFSASYRYSGVPDRFTGSGSGTDFTLTISNVQSEDLAEYFCQQYNSYPYTFGGGTNLEIK
4 | 0.108 | 2.25 | 0.87 | 469 |  |  |  |  |  | 11C8 (antibody, V domains shown) VH: QVQLKESGPGLVAPSQSLSITCTVSGFSLTAYGVHWVRQPPGKGLEWLGGIWAGGSTQSNSALMSRLSISKDSSKSQVFLRMNSLQTDDSAMYYCARALFYGNFDVWGAGTTVTVSS VL: DIVMTQSQKFMSTSVGDRVSVTCKASQSVDTSVAWYQQRPGQSPEALIFSASYRYSGVPDRFTGSGSGTDFTLTINNVQSEDLAEYFCQQYNSYPYTFGGGTNLEIK
5 | 0.0372 | 2.88 | 0.0472 | 878 |  |  |  |  |  | 51E12 (antibody, V domains shown) VH: QVQLQQSGPELVKPGASVKISCKVSGNAFSLSWMNWVKQRPGQGLEWIGRIYPGDGDSNYNGKFKGKATLTADKSSSTVFMQLSSLTSVDSAVYFCANYYGSSSWFVYWGQGTLVTVSA VL: DVVMTQTPLSLPVSLGDQASISCRSSQSLVHSYGNTYLHWYLQKPGQSPKLLIYKVSNRFSGVPDRFSGSGSGTDFTLKISRVETEDLGVYFCSQSTHFPWTFGGGTKLEIK
6 |  |  |  |  | 0.14 | 0.14 |  |  |  | ch-19E11 (antibody, human IgG1, kappa, V domains shown, also called 嵌合抗体ch-19E11) VH: EVQLQQSGPELEKPGASVKISCKASGFSFTGYNMNWVKQSNGKSLEWIGNIDPYYGGTTYNQKFKGKATLTVDISSSTAHMELKSLTSEDSAVYFCARSVTTVGYPMDYWGQGTSVTVSS VL: DIVMTQSPSSLAMSVGQKVTMNCKSSQSLLNSYNHKNCLAWYQQKPGQSPKLLISFASARESGVPDRFIGSGSGTDFTLTISSVQAEDLADYFCHQHYTSPLTFGAGTKLELKR
7 | 0.0376 |  |  |  |  |  | 0.024 |  |  | 19E11 (antibody, V domains shown, Mouse monoclonal antibody from a hybridoma, purified on Protein G; also called 鼠源抗体19E11; 杂交瘤抗体19E11) VH: EVQLQQSGPELEKPGASVKISCKASGFSFTGYNMNWVKQSNGKSLEWIGNIDPYYGGTTYNQKFKGKATLTVDISSSTAHMELKSLTSEDSAVYFCARSVTTVGYPMDYWGQGTSVTVSS VL: DIVMTQSPSSLAMSVGQKVTMNCKSSQSLLNSYNHKNCLAWYQQKPGQSPKLLISFASARESGVPDRFIGSGSGTDFTLTISSVQAEDLADYFCHQHYTSPLTFGAGTKLELK
8 | 0.036 | 2.87 | 0.273 | 457 |  |  |  |  |  | 45D1 (antibody, V domains shown) VH: EMQLVESGGDLVKPGGSLKLSCAVSGFTFSTYDMSWIRQTPDKRLEWVATISSGGSYTYYPDSVKGRFTISRDNAKNTLYLQMSSLQSEDTAIYYCASLNWGFDHWGQGTTLTVSS VL: not shown
9 |  |  |  |  | 0.0785 | 0.0785 |  | 0.0435 |  | ch-27A3 (antibody, human IgG1, kappa, V domains shown, also called 嵌合抗体ch-27A3) VH: QVQLQQPGAELVRPGASVKLSCKASGYSFTIYWMHWVKQRPGQGLEWIGMSHPSDSESRLNQKFKDKATLTVDKSSSTAYMQLSSPTSEDSAVYYCSRPYYGSSAWFADWGQGTLVTVSA VL: DIVMTQSPSSLAMSVGQKVTMSCKSSQSLLNSSNQKNYLAWYQQKPGQSPKLLIYFASTRESGVPDRFIGSGSGTDFTLSISSVQAEDLADYFCQQHYSFPLTFGAGTKLELRR
10 | 0.0202 |  |  |  |  |  | 0.00656 |  |  | 27A3 (antibody, V domains shown, Mouse monoclonal antibody from a hybridoma, purified on Protein G; also called 鼠源抗体27A3; 杂交瘤抗体27A3) VH: QVQLQQPGAELVRPGASVKLSCKASGYSFTIYWMHWVKQRPGQGLEWIGMSHPSDSESRLNQKFKDKATLTVDKSSSTAYMQLSSPTSEDSAVYYCSRPYYGSSAWFADWGQGTLVTVSA VL: DIVMTQSPSSLAMSVGQKVTMSCKSSQSLLNSSNQKNYLAWYQQKPGQSPKLLIYFASTRESGVPDRFIGSGSGTDFTLSISSVQAEDLADYFCQQHYSFPLTFGAGTKLELR
11 | 0.0317 | 2.79 | 3.43 | 382 |  |  |  |  |  | 15D10 (antibody, V domains shown) VH: QVQLQQPGAELVKPGASVKMSCKASGYTFTTYWMHWVKQRSGQGLEWIGVIDPSDSYTRYNQKFKDKATLTVDTSSSTAYMHLTSLTSEDSAVYYCTRSGIGNSFIMDYWGQGTSVTVSS VL: QVVLTQSPAIMPAFPGEKVTISCSASSSVIYMFWYQQKPGSSPKPWIYRTSNLASGVPARFTGSGSGTSYSLTISSMEAEDAATYYCQQYHSYPLTFGVGTKLELK
12 | 0.0556 | 2.74 | 0.164 | 445 |  |  |  |  |  | 8H2 (antibody, V domains shown) VH: EVNLVESGGGLVKPGGSLKLSCAASGFAFSNYDMSWVRQTPEKRLEWVATISGGGSYTYYPDNVKGRFTISRDNAMNTLYLQMSSLRSEDTALYYCASVNWGFPYWGQGTLVTVSA VL: DIVMSQSPSSLAVSIGEKVTMSCKSSQSLLYSRNQKNYLAWYQQKPGQSPILLIYWTSTRESGVPDRFTGSGSGTDFTLTISGVKAEDLAVYYCQQYYTSPWTFGGGTRLEIK
13 |  |  |  |  | 0.0766 |  |  |  | 0.03 | hu-27A3 (antibody, human IgG1, kappa, V domains shown, Humanized IgG1/kappa, made in HEK-293E cells; also called 27A3人源化抗体; 人源化后的27A3) VH: QVQLVQSGAEVKKPGASVKVSCKASGYSFTIYWMHWVRQAPGQGLEWIGMSHPSDSESRLNQKFKDRATLTVDKSTSTAYMELSSLRSEDTAVYYCSRPYYGSSAWFADWGQGTLVTVSA VL: DIVMTQSPDSLAVSLGERATINCKSSQSLLNSSNQKNYLAWYQQKPGQSPKLLIYFASTRESGVPDRFSGSGSGTDFTLTISSLQAEDVAVYYCQQHYSFPLTFGAGTKLELRR
14 |  |  |  |  | 0.131 |  |  |  | 0.085 | hu-19E11 (antibody, human IgG1, kappa, V domains shown, Humanized IgG1/kappa, made in HEK-293E cells; also called 19E11人源化抗体; 人源化后的19E11) VH: QVQLVQSGAEVKKPGASVKVSCKASGFSFTGYNMNWVRQAPGQSLEWIGNIDPYYGGTTYNQKFKGRATLTVDISISTAYMELSRLRSDDTAVYFCARSVTTVGYPMDYWGQGTSVTVSS VL: DIVMTQSPDSLAVSLGERATINCKSSQSLLNSYNHKNCLAWYQQKPGQSPKLLISFASARESGVPDRFSGSGSGTDFTLTISSLQAEDVAVYFCHQHYTSPLTFGAGTKLELKR
